Target: ACP-HA labeled via ACP with Cy3
Test: mock pull-down on magnetic beads from an equimolar mixture of Cy3-ACP-HA and Cy3-ACP-CaM-PCP; SDS-PAGE and in-gel fluorescence scanning; reference is ACP-CaM-PCP

Work on “primary-chloride-derivatized 12CA5 antibody immobilized via covalin on magnetic beads displaying BG” yielded an enrichment of ACP-HA over ACP-CaM-PCP of 80 fold.

Source: patent US20100075394A1
